According to the supplement of paper PMC10567573:

B1: CCDC6 (parent)
chain: FTPPTSLTRAGMSYYNSPGLHVQH
B2: CCDC89 (parent)
chain: LNAELEEKMMQEAEKLKAQGEYSR

Variants of: B1
Experiment: protein stability index of a GFP-peptide fusion (GPS, HEK-293T) (PSI 1-6); higher = more stable
Conditions: c terminus: a fixed tail appended
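Also: lentivirally expressed fusions sorted by FACS into six bins by GFP to DsRed ratio, PSI derived from sequencing read proportions per bin multiplied by bin number.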

Protein stability index, by site and new letter:
G19: I 1.56 | S 1.73 | T 1.86 | V 3.1 | W 1.8 | R 2.13 | N 2.09 | Y 1.96 | F 2.45 | D 2.22 | A 1.98 | E 2.1 | H 1.96 | M 2.08 | L 1.66 | K 2.27 | Q 2.87 | C 1.98
P18: H 1.38 | E 2.52 | V 2.27 | R 1.95 | K 2.43 | F 1.25 | M 1.73 | L 1.22 | C 1.21 | G 2.05 | W 2.62 | Q 2.16 | I 2.06 | N 1.78 | T 2.11 | S 1.87 | Y 2.87 | A 2.28 | D 1.5
Y14: T 2.33 | R 3.18 | F 1.94 | K 2.66 | M 1.7 | L 1.44 | E 2.73 | G 2.31 | D 3.09 | I 1.64 | V 1.32 | C 1.93 | P 1.88 | N 2.6 | Q 2.65 | H 2.42 | S 2.46 | A 2.09 | W 1.67
M12: V 1.99 | Y 1.71 | E 2.29 | S 2 | L 2.21 | W 2.4 | P 2.56 | I 2.02 | A 1.84 | K 2.2 | H 2.33 | G 1.57 | Q 1.73 | D 2.19 | N 2.12 | R 1.79 | C 1.68 | T 2.16 | F 1.58
S17: F 2.95 | Y 1.68 | T 1.64 | A 2.94 | R 1.76 | M 1.32 | K 2.04 | E 1.93 | G 2 | D 2.09 | N 1.24 | Q 1.57 | C 1.24 | W 2.48 | L 1.78 | V 1.86 | H 1.83 | I 1.7
N16: F 1.33 | R 1.42 | C 2.06 | V 2.32 | L 2.09 | Q 1.94 | A 2.42 | T 2.17 | I 1.98 | D 2.33 | Y 1.77 | P 1.89 | K 1.95 | E 1.62 | H 2.12 | S 1.65 | M 1.89 | G 1.53
H21: N 1.97 | Q 2.54 | W 2.36 | G 2.2 | T 1.91 | L 1.81 | P 1.76 | M 1.6 | A 2.11 | K 1.68 | R 1.75 | S 2.13 | V 2.58 | D 1.47 | I 1.61 | C 1.81 | E 2.75 | Y 1.25 | F 1.61
Q23: Y 2.06 | D 1.69 | G 1.56 | T 1.73 | F 1.92 | A 1.74 | C 1.65 | R 2.08 | N 1.2 | S 1.43 | I 2.46 | K 2.34 | M 1.31 | V 2.3 | P 1.79 | L 2 | W 3.23 | H 1.88
G11: T 2.17 | N 2.46 | Q 1.98 | I 1.49 | E 1.84 | K 1.19 | H 1.69 | L 1.97 | D 1.75 | A 1.96 | R 1.68 | C 1.71 | Y 2.12 | M 1.91 | F 1.68 | V 1.56 | S 2.23
Y15: I 2.18 | D 2.58 | L 2.22 | R 2.33 | W 3.27 | E 2.35 | G 2.37 | S 2.21 | A 2.24 | N 2.23 | T 2.51 | P 2.57 | F 2.5 | H 2.11 | C 1.99 | V 2.89 | M 1.92 | Q 2.45 | K 2.33
S13: H 1.67 | G 1.39 | W 1.3 | V 1.97 | T 1.39 | Y 1.86 | N 1.77 | D 1.43 | K 2.11 | A 2.18 | E 1.9 | R 1.87 | M 1.34 | L 1.73 | F 2.54 | P 1.96 | C 1.55 | I 1.69
H24: P 2.24 | S 1.8 | M 2.9 | Y 1.19 | N 1.15 | V 1.67 | W 1.38 | D 1.82 | C 1.66 | G 1.77 | L 1.63 | T 1.85 | R 1.73 | K 2.7 | F 2.77 | A 1.56 | I 3.53 | E 1.84 | Q 1.86
A10: H 2.09 | M 1.9 | V 1.98 | L 1.2 | F 2.33 | T 1.68 | N 2.23 | S 2.06 | Y 2.72 | R 2.22 | P 1.91 | W 3.03 | I 1.75 | Q 2 | K 2.01 | E 2.15 | D 1.37
V22: T 1.97 | L 1.95 | D 1.86 | C 1.51 | A 1.7 | F 1.51 | Y 2.32 | I 2.14 | N 1.98 | W 1.22 | H 1.87 | G 2.01 | S 1.74 | K 2.25 | E 2.18 | Q 1.56 | R 2.01 | M 1.64
L20: E 2.27 | V 2.02 | N 2.4 | P 1.67 | M 1.8 | H 1.72 | A 2.14 | Y 1.51 | D 2.02 | G 2.93 | T 2.35 | C 1.68 | S 1.84 | Q 2.69 | R 2.62 | K 2.25 | I 2.36 | F 1.72 | W 2.79
R9: F 2.94 | V 1.58 | Y 3.32 | L 2.82 | I 1.45 | S 1.79 | H 1.27 | K 1.71 | G 1.59 | Q 2.54 | M 1.81 | N 1.65 | T 1.47

Variants of: B2
Experiment: as above
Conditions: c terminus: a fixed tail appended

Protein stability index, by site and new letter:
A3: L 5.02 | Y 4.2 | D 5.08 | R 4.94 | F 4.57 | V 5.13
A13: W 4.13
E12: I 3.28 | R 4.26 | P 5.4
Y22: C 5.25 | Q 5.64 | S 5.28
K8: V 4.86 | Q 5.02
S23: G 5.13 | Y 4.47 | F 4.75 | H 3.95
Q19: H 4.74 | C 4.66 | Y 2.53
E14: H 5.41 | A 4
A18: D 4.95 | L 3.87
L5: M 5.21 | R 4.7 | F 4.73
L16: A 5.1
M9: K 3.98 | F 4.97
K15: M 5.82
L1: I 4.69 | S 5.21
E21: T 4.19 | A 4.77
Q11: R 4.76 | S 5.49 | W 4.22
N2: T 5.32 | S 5.11
M10: N 5.34
E4: P 3.94
E7: G 4.35 | Y 4.61
